One block for each binder: values may come before it.
Experiments:
[1] = biological target: T1, human Fc receptor protein CD32a (human, UniProt P12318 34-217, biotinylated); experiment: BLI (ForteBio), biotinylated receptor on SA sensor, antibody from 5,000 nM, 1:1 global fit
T1 construct: Biotinylated protein captured on SA sensors
T1 sequence (looked up): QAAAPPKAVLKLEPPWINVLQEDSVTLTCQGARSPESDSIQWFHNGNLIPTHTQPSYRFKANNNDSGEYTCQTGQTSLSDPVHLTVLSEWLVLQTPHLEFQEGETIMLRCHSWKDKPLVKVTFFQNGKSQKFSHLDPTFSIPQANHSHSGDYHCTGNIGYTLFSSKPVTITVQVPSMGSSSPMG
Description: (§1) The dynamic affinity of the antibodies 101A6HZ, 101A6HZm and Hu24 with human Fc receptor proteins CD16a, CD32a, CD32b, CD64 and FcRn was detected through ForteBio (Pall life sciences).

[2] = biological target: T2, human Fc receptor protein CD32b (human, UniProt P31994 43-217, biotinylated); experiment: as above
T2 construct: Biotinylated protein captured on SA sensors
T2 sequence (looked up): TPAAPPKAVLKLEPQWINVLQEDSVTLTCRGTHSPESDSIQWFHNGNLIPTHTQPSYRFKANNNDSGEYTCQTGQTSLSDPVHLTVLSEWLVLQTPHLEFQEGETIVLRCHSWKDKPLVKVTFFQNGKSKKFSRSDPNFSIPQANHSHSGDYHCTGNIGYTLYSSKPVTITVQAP
Description: as §1

[3] = biological target: T3, human PTK7 on cells (tumor cells endogenously expressing PTK7); CHO-hPTK7, CHO-S-hPTK7 and 293T-hPTK7 … (human, UniProt Q13308 31-1070); experiment: flow cytometry on OVCAR-3 cells
T3 construct: whole, on cells; The cell line of each value is named under assay; also called H1299; H358
T3 sequence (looked up): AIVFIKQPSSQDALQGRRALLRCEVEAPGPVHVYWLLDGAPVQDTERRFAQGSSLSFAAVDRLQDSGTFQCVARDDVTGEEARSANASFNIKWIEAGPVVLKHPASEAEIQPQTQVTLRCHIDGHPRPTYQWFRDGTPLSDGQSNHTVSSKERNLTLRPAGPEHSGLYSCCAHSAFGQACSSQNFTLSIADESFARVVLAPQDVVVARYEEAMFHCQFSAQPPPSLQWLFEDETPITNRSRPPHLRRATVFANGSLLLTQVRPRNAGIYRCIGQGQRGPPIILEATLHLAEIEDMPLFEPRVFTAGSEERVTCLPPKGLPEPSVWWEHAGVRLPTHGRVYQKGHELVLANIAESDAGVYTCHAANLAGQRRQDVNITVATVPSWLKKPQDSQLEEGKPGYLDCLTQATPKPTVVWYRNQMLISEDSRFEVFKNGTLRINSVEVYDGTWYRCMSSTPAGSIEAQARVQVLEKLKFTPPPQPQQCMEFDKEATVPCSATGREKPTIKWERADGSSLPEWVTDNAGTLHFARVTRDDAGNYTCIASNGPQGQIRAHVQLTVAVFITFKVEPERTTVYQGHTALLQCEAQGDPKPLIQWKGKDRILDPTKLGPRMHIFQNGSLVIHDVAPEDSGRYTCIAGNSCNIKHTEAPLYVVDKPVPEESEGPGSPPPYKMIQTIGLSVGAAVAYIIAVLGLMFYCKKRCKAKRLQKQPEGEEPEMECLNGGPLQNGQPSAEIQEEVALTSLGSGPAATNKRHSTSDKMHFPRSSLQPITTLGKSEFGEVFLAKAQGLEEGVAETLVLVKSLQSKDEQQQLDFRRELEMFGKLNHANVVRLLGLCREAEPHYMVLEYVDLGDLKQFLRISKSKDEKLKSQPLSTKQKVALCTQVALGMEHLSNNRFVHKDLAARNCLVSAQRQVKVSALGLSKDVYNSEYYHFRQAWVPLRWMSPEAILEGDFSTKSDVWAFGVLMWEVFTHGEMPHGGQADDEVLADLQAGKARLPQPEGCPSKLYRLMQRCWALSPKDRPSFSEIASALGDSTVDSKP
Description: A flow cytometer (Beckman, Cytoflex) was used for detecting the affinity of the anti-human PTK7 chimeric and humanized antibodies with human non-small cell lung cancer cells H1299, human lung adenocarcinoma cells H1975, human breast cancer cells T47D, human ovarian cancer cells OVCAR-3 (all purchased from NANJING COBIOER BIOSCIENCES CO., LTD) and CHO-hPTK7 overexpression cells.
The adherent cells were digested by using a pancreatin (Gibco) solution; a proper amount of cells were counted and taken, washed twice by using 1×PBS, and re-suspended in a 1% BSA solution; and then the cells were transferred into a 96-well deep plate at a density of 50 μl/well; a candidate antibody was diluted by using 1% BSA, then 50 μl of diluted antibody was added into the deep plate containing the cells, and incubated for 40 min at 4° C.; the cells were washed twice by using PBS, then 50 μl of diluted secondary antibody was added into each well, uniformly mixed, and incubated for 30 min at 4° C.; and the cells were washed twice by using PBS, then re-suspended in 400 μl of PBS, and subjected to examination by flow cytometer.

Kd [1]: 2270 nM
Kd [2]: 1780 nM
B1: 101A6HZ (anti-human PTK7 humanized antibody) (antibody, human IgG1, kappa)
heavy: not shown
light: DIVMTQSPDSLAVSLGERATINCKASQDVGSAVIWYQQKPGQSPKLLIYWASTRHTGVPDRFSGSGSGTDFTLTISSLQAEDVAVYYCQQYSSYPLTFGQGTKLEIKRTVAAPSVFIFPPSDEQLKSGTASVVCLLNNFYPREAKVQWKVDNALQSGNSQESVTEQDSKDSTYSLSSTLTLSKADYEKHKVYACEVTHQGLSSPVTKSFNRGEC

EC50 [3]: 0.0613 µg/mL
B2: 64A10HZ (anti-human PTK7 humanized antibody) (antibody, human IgG1, kappa, V domains shown)
VH: QVQLQESGPGLVKPSETLSLTCTVSGFSLTSYGVYWVRQPPGKGPEWLGVIWTSGNTNYNPSLKSRLTISKDNSKNQVSLKLSSVTAADTAVYYCVKHDGGNYVGVMNYWGQGTLVTVSS
VL: EIVMTQSPDFQSVTPKEKVTITCRASQSISDYLHWYQQKPDQSPKLLIKYASQSISGVPSRFSGSGSGSDFTLTINSLEAEDAATYYCQNGHSFPPTFGQGTKLEIKR
notes: Human IgG1 heavy chain constant region and human Kappa light chain constant region; expressed in CHO-S cells

EC50 [3]: 0.123 µg/mL
Kd [1]: 1730 nM
Kd [2]: 1760 nM
B3: Hu24 (PTK7 control antibody, taken from Hu24 in the Patent CN201580030255) (antibody)
chain 1: QVQLVQSGPEVKKPGASVKVSCKASGYTFTDYAVHWVRQAPGKRLEWIGVISTYNDYTYNNQDFKGRVTMTRDTSASTAYMELSRLRSEDTAVYYCARGNSYFYALDYWGQGTSVTVSS
chain 2: EIVLTQSPATLSLSPGERATLSCRASESVDSYGKSFMHWYQQKPGQAPRLLIYRASNLESGIPARFSGSGSGTDFTLTISSLEPEDFAVYYCQQSNEDPWTFGGGTKLEIK

From patent US20260250420A1 (SICHUAN KELUN BIOTECH BIOPHARMACEUTICAL, published 2026)
